T1: human sodium-dependent phosphate transporter 2B (NaPi2b) (human, UniProt O95436 1-690)
T1 sequence: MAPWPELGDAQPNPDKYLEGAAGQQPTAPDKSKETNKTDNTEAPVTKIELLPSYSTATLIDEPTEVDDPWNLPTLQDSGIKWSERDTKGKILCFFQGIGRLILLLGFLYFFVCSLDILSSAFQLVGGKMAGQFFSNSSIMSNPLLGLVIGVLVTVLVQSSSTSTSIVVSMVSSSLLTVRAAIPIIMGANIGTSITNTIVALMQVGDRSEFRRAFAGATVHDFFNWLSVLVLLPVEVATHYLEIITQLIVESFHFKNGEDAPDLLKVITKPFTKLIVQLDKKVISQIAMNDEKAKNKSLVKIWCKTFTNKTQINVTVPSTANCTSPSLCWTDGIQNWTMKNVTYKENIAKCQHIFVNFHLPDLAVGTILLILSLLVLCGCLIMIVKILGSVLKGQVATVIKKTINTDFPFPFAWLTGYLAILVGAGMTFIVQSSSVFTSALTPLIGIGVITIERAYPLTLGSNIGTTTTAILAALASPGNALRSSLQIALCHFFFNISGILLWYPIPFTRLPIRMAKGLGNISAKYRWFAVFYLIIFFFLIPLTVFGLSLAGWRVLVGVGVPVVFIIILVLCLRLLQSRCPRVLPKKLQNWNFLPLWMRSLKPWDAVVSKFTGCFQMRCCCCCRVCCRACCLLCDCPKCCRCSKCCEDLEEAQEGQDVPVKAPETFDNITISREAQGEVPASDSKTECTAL

T2: human sodium-dependent phosphate transporter 2B (NaPi2b) (human, UniProt O95436 1-690)
T2 sequence: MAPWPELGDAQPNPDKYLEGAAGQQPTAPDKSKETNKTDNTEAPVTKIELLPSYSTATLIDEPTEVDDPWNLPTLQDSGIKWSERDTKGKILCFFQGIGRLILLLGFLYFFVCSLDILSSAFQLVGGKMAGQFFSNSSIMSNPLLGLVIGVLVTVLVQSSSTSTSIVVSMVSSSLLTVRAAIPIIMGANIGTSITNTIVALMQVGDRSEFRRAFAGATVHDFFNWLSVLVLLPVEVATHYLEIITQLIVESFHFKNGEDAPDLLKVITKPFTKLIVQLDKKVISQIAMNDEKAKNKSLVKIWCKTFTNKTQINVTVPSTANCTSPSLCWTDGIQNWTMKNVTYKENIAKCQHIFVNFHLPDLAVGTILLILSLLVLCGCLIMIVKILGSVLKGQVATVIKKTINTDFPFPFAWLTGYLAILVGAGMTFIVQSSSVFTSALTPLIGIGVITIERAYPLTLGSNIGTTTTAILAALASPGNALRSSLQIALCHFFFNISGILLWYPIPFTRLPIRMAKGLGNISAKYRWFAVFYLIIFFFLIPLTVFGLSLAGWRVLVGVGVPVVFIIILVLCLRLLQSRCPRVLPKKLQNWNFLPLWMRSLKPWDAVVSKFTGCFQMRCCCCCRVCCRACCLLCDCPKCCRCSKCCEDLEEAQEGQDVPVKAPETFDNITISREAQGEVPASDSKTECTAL


Legend:
Experiment in all cases: cell-based or functional assay
[1] = target: T1, human sodium-dependent phosphate …
[2] = target: T1, human sodium-dependent phosphate …; remark: listed apart in the source
[3] = target: T2, human sodium-dependent phosphate …; remark: listed apart in the source
[4] = target: T2, human sodium-dependent phosphate …; remark: listed apart in the source

Row | Binder | EC50 (nM), in vitro cytotoxicity, H441 Spheroids [1] [nM] | EC50 (nM), in vitro cytotoxicity, H1781 Spheroids [1] [nM] | Internalized Fluorescence Fold-Over Untreated, H441, 4 hours, 2.5 nM [2] [fold] | Internalized Fluorescence Fold-Over Untreated, H441, 24 hours, 2.5 nM [2] [fold] | Internalized Fluorescence Fold-Over Untreated, HCC-78, 4 hours, 2.5 nM [2] [fold] | Internalized Fluorescence Fold-Over Untreated, HCC-78, 24 hours, 2.5 nM [2] [fold] | Internalized Fluorescence Fold-Over Untreated, IGROV-1, 4 hours, 2.5 nM [2] [fold] | Internalized Fluorescence Fold-Over Untreated, IGROV-1, 24 hours, 2.5 nM [2] [fold] | EC50 of cytotoxicity, 2D monolayer, HCC-78 cells, 4 days, CellTiter-Glo [3] [nM] | EC50 of cytotoxicity, 2D monolayer, IGROV-1 cells, 4 days, CellTiter-Glo [3] [nM] | EC50 of cytotoxicity, HCC-78 3D spheroids, 6 days, CellTiter-Glo 3D [4] [nM] | EC50 of cytotoxicity, IGROV-1 3D spheroids, 6 days, CellTiter-Glo 3D [4] [nM]
1 | v18993-MCvc-PABC-MMAE (lifastuzumab vedotin) (antibody, human IgG1, kappa, drug-linker MCvc-PABC-MMAE; DAR 4.1 for the whole antibody; sites not stated) heavy 1: GEVQLVESGGGLVQPGGSLRLSCAASGFSFSDFAMSWVRQAPGKGLEWVATIGRVAFHTYYPDSMKGRFTISRDNSKNTLYLQMNSLRAEDTAVYYCARHRGFDVGHFDFWGQGTLVTVSSASTKGPSVFPLAPSSKSTSGGTAALGCLVKDYFPEPVTVSWNSGALTSGVHTFPAVLQSSGLYSLSSVVTVPSSSLGTQTYICNVNHKPSNTKVDKKVEPKSCDKTHTCPPCPAPELLGGPSVFLFPPKPKDTLMISRTPEVTCVVVDVSHEDPEVKFNWYVDGVEVHNAKTKPREEQYNSTYRVVSVLTVLHQDWLNGKEYKCKVSNKALPAPIEKTISKAKGQPREPQVYVYPPSRDELTKNQVSLTCLVKGFYPSDIAVEWESNGQPENNYKTTPPVLDSDGSFALVSKLTVDKSRWQQGNVFSCSVMHEALHNHYTQKSLSLSPG heavy 2: not shown light: GDIQMTQSPSSLSASVGDRVTITCRSSETLVHSSGNTYLEWYQQKPGKAPKLLIYRVSNRFSGVPSRFSGSGSGTDFTLTISSLQPEDFATYYCFQGSFNPLTFGQGTKVEIKRTVAAPSVFIFPPSDEQLKSGTASVVCLLNNFYPREAKVQWKVDNALQSGNSQESVTEQDSKDSTYSLSSTLTLSKADYEKHKVYACEVTHQGLSSPVTKSFNRGEC | 11.4 | 7.94 |  |  |  |  |  |  |  |  |  | 
2 | v38591 (humanized anti-NaPi2b antibody, H1L2, wild-type Fc) (antibody, human IgG1, kappa) heavy: not shown light: DVQMTQSPSSLSASVGDRVTITCRASQDVYSYLNWYQQKPGKAVKLLIYYTSRLQSGVPSRFSGSGSGTDYTLTISSLQPEDFATYYCQQYNIFPWTFGQGTKLEIKRTVAAPSVFIFPPSDEQLKSGTASVVCLLNNFYPREAKVQWKVDNALQSGNSQESVTEQDSKDSTYSLSSTLTLSKADYEKHKVYACEVTHQGLSSPVTKSFNRGEC | > 200 | > 200 | 1.2 | 1.9 | 5.7 | 35 | 7.2 | 26 |  |  |  | 
3 | v29456-MT-GGFG-Compound 148 DAR 8 (antibody, human IgG1, kappa, MT-GGFG-Compound 148 drug-linker on reduced cysteines (maleimide); DAR 8 for the whole antibody) heavy: not shown light: DVQMTQSPSSLSASVGDRVTITCRASQDVYSYLNWYQQKPGKAVKLLIYYTSRLQSGVPSRFSGSGSGTDYTLTISSLQPEDFATYYCQQYNIFPWTFGQGTKLEIKRTVAAPSVFIFPPSDEQLKSGTASVVCLLNNFYPREAKVQWKVDNALQSGNSQESVTEQDSKDSTYSLSSTLTLSKADYEKHKVYACEVTHQGLSSPVTKSFNRGEC |  |  |  |  |  |  |  |  | 1.98 |  |  | 
4 | v29456-MT-GGFG-AM-Compound 136 DAR 8 (antibody, human IgG1, kappa, MT-GGFG-AM-Compound 136 drug-linker on reduced cysteines (maleimide); DAR 8 for the whole antibody) heavy: not shown light: DVQMTQSPSSLSASVGDRVTITCRASQDVYSYLNWYQQKPGKAVKLLIYYTSRLQSGVPSRFSGSGSGTDYTLTISSLQPEDFATYYCQQYNIFPWTFGQGTKLEIKRTVAAPSVFIFPPSDEQLKSGTASVVCLLNNFYPREAKVQWKVDNALQSGNSQESVTEQDSKDSTYSLSSTLTLSKADYEKHKVYACEVTHQGLSSPVTKSFNRGEC |  |  |  |  |  |  |  |  | 0.43 | 4.48 |  | 
5 | v29456-MT-GGFG-AM-Compound 139 DAR 8 (antibody, human IgG1, kappa, MT-GGFG-AM-Compound 139 drug-linker on reduced cysteines (maleimide); DAR 8 for the whole antibody) heavy: not shown light: DVQMTQSPSSLSASVGDRVTITCRASQDVYSYLNWYQQKPGKAVKLLIYYTSRLQSGVPSRFSGSGSGTDYTLTISSLQPEDFATYYCQQYNIFPWTFGQGTKLEIKRTVAAPSVFIFPPSDEQLKSGTASVVCLLNNFYPREAKVQWKVDNALQSGNSQESVTEQDSKDSTYSLSSTLTLSKADYEKHKVYACEVTHQGLSSPVTKSFNRGEC |  |  |  |  |  |  |  |  | 0.65 | 1.71 | 0.82 | 0.37
6 | v38591-MC-GGFG-AM-Compound 139 DAR 4 (antibody, human IgG1, kappa, drug-linker MC-GGFG-AM-Compound 139 conjugated by maleimide after TCEP reduction; DAR 4 for the whole antibody; sites not stated) heavy: not shown light: DVQMTQSPSSLSASVGDRVTITCRASQDVYSYLNWYQQKPGKAVKLLIYYTSRLQSGVPSRFSGSGSGTDYTLTISSLQPEDFATYYCQQYNIFPWTFGQGTKLEIKRTVAAPSVFIFPPSDEQLKSGTASVVCLLNNFYPREAKVQWKVDNALQSGNSQESVTEQDSKDSTYSLSSTLTLSKADYEKHKVYACEVTHQGLSSPVTKSFNRGEC | 9.85 | 0.95 | 1.2 | 2 | 5.6 | 35.9 | 7.1 | 26.6 |  |  |  | 
7 | v29456-MT-GGFG-AM-Compound 129 DAR 8 (antibody, human IgG1, kappa, MT-GGFG-AM-Compound 129 drug-linker on reduced cysteines (maleimide); DAR 8 for the whole antibody) heavy: not shown light: DVQMTQSPSSLSASVGDRVTITCRASQDVYSYLNWYQQKPGKAVKLLIYYTSRLQSGVPSRFSGSGSGTDYTLTISSLQPEDFATYYCQQYNIFPWTFGQGTKLEIKRTVAAPSVFIFPPSDEQLKSGTASVVCLLNNFYPREAKVQWKVDNALQSGNSQESVTEQDSKDSTYSLSSTLTLSKADYEKHKVYACEVTHQGLSSPVTKSFNRGEC |  |  |  |  |  |  |  |  | 0.42 | 1.11 |  | 
8 | v40502 (LALADS) anti-NaPi2b antibody (antibody, human IgG1, kappa, L234A L235A) heavy: not shown light: DVQMTQSPSSLSASVGDRVTITCRASQDVYSYLNWYQQKPGKAVKLLIYYTSRLQSGVPSRFSGSGSGTDYTLTISSLQPEDFATYYCQQYNIFPWTFGQGTKLEIKRTVAAPSVFIFPPSDEQLKSGTASVVCLLNNFYPREAKVQWKVDNALQSGNSQESVTEQDSKDSTYSLSSTLTLSKADYEKHKVYACEVTHQGLSSPVTKSFNRGEC | > 200 | > 200 | 1.2 | 1.9 | 5.5 | 35.5 | 7 | 25.3 |  |  |  | 
9 | v40502-MC-GGFG-AM-Compound 139 DAR 4 (antibody, human IgG1, kappa, L234A L235A, drug-linker MC-GGFG-AM-Compound 139 conjugated by maleimide after TCEP reduction; DAR 4 for the whole antibody (printed 3.3 in Table 45.1); sites not stated) heavy: not shown light: DVQMTQSPSSLSASVGDRVTITCRASQDVYSYLNWYQQKPGKAVKLLIYYTSRLQSGVPSRFSGSGSGTDYTLTISSLQPEDFATYYCQQYNIFPWTFGQGTKLEIKRTVAAPSVFIFPPSDEQLKSGTASVVCLLNNFYPREAKVQWKVDNALQSGNSQESVTEQDSKDSTYSLSSTLTLSKADYEKHKVYACEVTHQGLSSPVTKSFNRGEC | 7.57 | 1.15 | 1.2 | 1.9 | 5.3 | 36.5 | 6.8 | 25.4 |  |  |  | 
10 | v21995 (palivizumab, anti-RSV antibody) (antibody, human IgG1, kappa, V domains shown) VH: QVTLRESGPALVKPTQTLTLTCTFSGFSLSTSGMSVGWIRQPPGKALEWLADIWWDDKKDYNPSLKSRLTISKDTSKNQVVLKVTNMDPADTATYYCARSMITNWYFDVWGAGTTVTVSS VL: DIQMTQSPSTLSASVGDRVTITCKSQLSVGYMHWYQQKPGKAPKLLIYDTSKLASGVPSRFSGSGSGTEFTLTISSLQPDDFATYYCFQGSGYPFTFGGGTKLEIKR |  |  | 1 | 1.1 | 1 | 1.1 | 0.9 | 1 |  |  |  | 

— US20250235548A1 (Zymeworks, published 2025)
